Measurements reported in the supplement of paper PMC10266784.

B1: library; numbered along this chain (parent)
chain: MAAAAAAAAEQQSSNGPVKKSMREKAVERRSVNKEHNSNFKAGYIPIDEDRLHKTGLRGRKGNLAICVIILLFILAVINLIITLVIWAVIRIGPNGCDSMEFHESGLLRFKQVSDMGVIHPLYKSTVGGRRNENLVITGNNQPIVFQQGTTKLSVENNKTSITSDIGMQFFDPRTQNILFSTDYETHEFHLPSGVKSLNVQKASTERITSNATSDLNIKVDGRAIVRGNEGVFIMGKTIEFHMGGNMELKAENSIILNGSVMVSTTRLPSSSSGDQLGSGDWVRYKLCMCADGTLFKVQVTSQNMGCQISDNPCGNTH

Variants of: B1
Test: SGCB cell-surface expression functional score (HA stain, bin4 vs bin1, normalised to synonymous) (log10 ratio); higher = more cell-surface SGCB (functional)
Outline: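 Codon-saturation libraries of HA-tagged, YFP-fused human beta-sarcoglycan were lentivirally transduced at MOI <0.1 into HEK293 cells stably expressing alpha-, gamma- and delta-sarcoglycan. YFP-positive cells were sorted after 72 hours, grown 5–7 days, stained on ice with Alexa Fluor 647 anti-HA, fixed, sorted into four 5% intensity bins and amplicon-sequenced. The functional score is the log ratio of highest-bin to lowest-bin variant frequency, taken as the median over codons and duplicate transductions. Synonymous variants were scaled per section to mean 0, SD 0.5.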

SGCB cell-surface expression functional score (log10), by site and new letter:
S272: K 0.11 | P 0.21 | F 0.1 | Y -0.29 | E 0.23 | C -0.03 | G 0.1 | W -0.13 | L 0.07 | R 0.18 | Q 0.34 | A 0.37 | V -0.14 | T -0.52 | M -1.59 | N 0.08 | H -0.05 | D -0.3 | I 0.34
G274: F -0.16 | R -0.37 | D -0.37 | N -0.16 | H -1.17 | T 0.16 | M -0.11 | I 0.31 | A -0.37 | V -0.14 | S 0.17 | E -0.62 | Y 0.47 | Q -0.28 | P -0.32 | K -0.77 | L 0.03 | W -0.13 | C -0.61
S264: H 0.22 | G 0.23 | N -0.3 | V 0.6 | T 0.31 | A 0.51 | I 0.34 | W -0.2 | R 0.03 | K 0.5 | D 0.96 | F 0.58 | M 0.69 | L 0.68 | Q 0.39 | Y 0.34 | E 0.53 | P 0.06 | C -0.1
D275: L -0.13 | S -0.06 | C -0.13 | G 0.01 | I -0.42 | N -0.12 | A -0.05 | V 0.12 | P -1.24 | R -0.53 | K -0.82 | T -0.08 | Q -1.58 | M 0.18 | W -0.16 | F -0.57 | Y 0.17 | E -0.21 | H -0.97
V263: F 0.35 | P -1.18 | K -0.87 | N 0.66 | H 0.31 | E -0.52 | Q -1.36 | Y 0.3 | S -0.39 | G -0.03 | T 0.4 | L 0.09 | W 0.52 | D -0.53 | R -0.48 | I 0.77 | M -1.03 | A -0.4 | C 1
V261: C 0.48 | H -1.2 | E 0.05 | L 0.42 | R -0.69 | D 0.41 | A -0.02 | T 0.23 | G -0.18 | I 0.29 | Q -1.12 | N -0.63 | F -1.31 | S -0.04 | M -0.12 | P -0.15 | Y -1.15 | W 0.306 | K -1.55
R267: D -0.54 | V 0.49 | F 0.59 | M -0.73 | P -0.19 | E -0.053 | C 0.16 | W -0.83 | S 0.28 | A 0.63 | H 0.05 | G 0.49 | N 0 | L -0.05 | T -0.49 | Q -0.244 | K 0.76 | Y 0.2 | I -0.11
Q276: A -0.49 | K 0.11 | H -0.07 | I 0.1 | M 0.2 | R -0.17 | D 0.34 | T -1.1 | L -0.3 | N -0.22 | P -0.4 | G 0.24 | V -0.56 | Y 0.02 | E 0.14 | W -1.29 | C -1 | S -0.37 | F -0.23
S273: D -0.07 | R -0.14 | K -0.55 | P -0.33 | G -0.18 | F -1.31 | E 0.08 | L -0.2 | C -0.58 | Q -0.2 | H -0.82 | I 0.05 | A -0.68 | Y 0.11 | T -0.52 | W 0.09 | M -1.46 | N 0.34 | V -0.79
T265: C -0.3 | D 0 | S 0.4 | N 0.79 | W 0.38 | H 0.75 | Y 0.55 | F 0.68 | A 0 | G 0.47 | E 0.2 | P 0.25 | M 1.41 | V 0.52 | I 0.58 | L 0.73 | Q 0.21 | K 0.32 | R 0.4
T266: Q 1.04 | K 1.15 | Y 0.19 | I 0.26 | S 0.4 | N 0.54 | V 0.35 | G 1.23 | E 1.22 | H 0.55 | C 1.12 | W 0.59 | L 0.47 | M 1.39 | P 0.54 | D 0.4 | R 0.23 | F 0.7 | A 0.63
P269: L 0.23 | F 0.8 | D -0.09 | I 0.5 | S 0.18 | W 0.56 | Y 0.73 | M -0.48 | V 0 | E 0 | G 0.44 | Q 0.32 | N 0.54 | H 0.32 | C 0.49 | K 0.01 | T 0.41 | A -0.23 | R 0.75
M262: R 0.7 | Q 0.93 | V 0.78 | C 0.37 | G 0.53 | W 0.08 | N 0 | Y 0.79 | T 0.19 | L 0.57 | S 0.7 | K 0.79 | I -0.11 | E 0.65 | A 0.37 | F 0.95 | D -0.81 | P -0.34 | H 1.32
L277: G -0.19 | D -0.09 | C -1.31 | F -0.4 | H 0.19 | E 0.02 | A -0.39
S270: C -0.02 | F 1.1 | E -0.45 | Y 0.41 | T 0.45 | L 0.64 | V 0.24 | G 0.32 | N -0.08 | P 0 | Q 0.47 | M 0.77 | K -0.13 | A 0.44 | I 0.33 | R 0.24 | H 0.54 | D 0.32
S260: E -0.09 | C 0.5 | R 0.87 | G 0.77 | I -0.71 | T 0.41 | H 0.83 | M 0.98 | K -0.81 | Q -0.24 | F 0.4 | Y -0.87 | P 0.71 | D -0.04 | N 0.25 | V 0.01 | L -0.22 | A 0.52 | W 0.61
G259: S 0.28 | Y -1.22 | V 0.07 | W -1.53 | T 0.55
L268: T -0.02 | G -0.22 | E -0.13 | N 0 | R 0.02 | W 0.53 | F 0.46 | I 0.38 | D 0.78 | S 0.48 | C -0.57 | H 0 | M 0.61 | V 0.2 | Q -0.01 | A 0.63 | K -1.12 | P -0.02 | Y -0.02
S271: C -0.06 | N 0.21 | E -0.22 | R -0.24 | K 0.11 | L 0.07 | P -0.56 | Q -0.08 | I -0.19 | V 0.17 | G 0.33 | D -0.12 | M -0.03 | W -0.22 | A 0 | F 0.35 | H -0.19 | T 0.3 | Y -0.26
